Source: US20130164214A1

Legend:
[1] = biological target: CD74 (invariant chain, Ii) (human) (UniProt P04233); test: cell-based or functional assay
[2] = biological target: CD20 (UniProt P11836); test: cell-based or functional assay
Sequence of CD20 (P11836 whole entry): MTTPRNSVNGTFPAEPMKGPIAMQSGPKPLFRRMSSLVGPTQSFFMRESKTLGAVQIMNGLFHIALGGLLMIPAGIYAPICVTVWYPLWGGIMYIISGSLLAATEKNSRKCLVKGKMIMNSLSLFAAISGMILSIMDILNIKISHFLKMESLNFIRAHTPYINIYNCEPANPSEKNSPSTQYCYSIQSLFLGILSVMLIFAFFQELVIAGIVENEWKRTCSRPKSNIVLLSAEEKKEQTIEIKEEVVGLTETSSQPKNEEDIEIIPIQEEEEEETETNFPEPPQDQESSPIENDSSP

Sequence of CD74 (invariant chain, Ii) (human) (P04233 whole entry, change not shown): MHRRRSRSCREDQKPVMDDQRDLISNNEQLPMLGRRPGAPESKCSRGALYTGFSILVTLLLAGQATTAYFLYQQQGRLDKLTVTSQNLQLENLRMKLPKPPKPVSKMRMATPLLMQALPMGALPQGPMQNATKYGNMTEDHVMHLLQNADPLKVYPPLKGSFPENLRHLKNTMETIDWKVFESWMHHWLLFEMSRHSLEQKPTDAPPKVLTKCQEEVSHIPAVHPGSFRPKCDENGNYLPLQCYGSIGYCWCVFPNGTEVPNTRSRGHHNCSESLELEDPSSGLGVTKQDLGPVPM

Row | reduction of live B cells in human PBMCs after 3 days with antibody, flow cytometry [1] [%] | reduction of live mDC2 in human PBMCs after 3 days with antibody, flow cytometry [1] [%] | Substance | in vitro cytotoxicity EC50, Daudi and Ramos NHL cell lines [2] [nM] | in vitro cytotoxicity EC50, Jeko-1 mantle cell lymphoma line [2] [nM]
1 | 22 | 53.8 | milatuzumab (humanized anti-CD74 LL1 antibody) |  | 
2 |  |  | 20-Rap (hA20 IgG-AD2 with four copies of Rap-DDD2) | 0.1 | 0.02
